Patent publication US20230270823A1
Read-outs that look alike come from different tables or passages of the source.

Columns and labels:
Assay in all cases: cell-based or functional assay
[1] = target: IL-15Rβ/γ chain (IL-2Rβ and common gamma chain) on human CD8+ T cells and NK cells (human) (UniProt P14784)
[2] = target: IL-15Rβ/γ chain (IL-2Rβ and common gamma chain) on human CD8+ T cells and NK cells (human) (UniProt P14784); remark: listed apart in the source
[3] = target: IL-15Rβ/γ chain (IL-2Rβ and common gamma chain) on human CD8+ T cells and NK cells (human) (UniProt P14784); remark: listed apart in the source
[4] = target: IL-15Rβ/γ chain (IL-2Rβ and common gamma chain) on human CD8+ T cells and NK cells (human) (UniProt P14784); remark: listed apart in the source

Sequence of IL-15Rβ/γ chain (IL-2Rβ and common gamma chain) on human CD8+ T cells and NK cells (human) (P14784 27-551, chain 1 of 2): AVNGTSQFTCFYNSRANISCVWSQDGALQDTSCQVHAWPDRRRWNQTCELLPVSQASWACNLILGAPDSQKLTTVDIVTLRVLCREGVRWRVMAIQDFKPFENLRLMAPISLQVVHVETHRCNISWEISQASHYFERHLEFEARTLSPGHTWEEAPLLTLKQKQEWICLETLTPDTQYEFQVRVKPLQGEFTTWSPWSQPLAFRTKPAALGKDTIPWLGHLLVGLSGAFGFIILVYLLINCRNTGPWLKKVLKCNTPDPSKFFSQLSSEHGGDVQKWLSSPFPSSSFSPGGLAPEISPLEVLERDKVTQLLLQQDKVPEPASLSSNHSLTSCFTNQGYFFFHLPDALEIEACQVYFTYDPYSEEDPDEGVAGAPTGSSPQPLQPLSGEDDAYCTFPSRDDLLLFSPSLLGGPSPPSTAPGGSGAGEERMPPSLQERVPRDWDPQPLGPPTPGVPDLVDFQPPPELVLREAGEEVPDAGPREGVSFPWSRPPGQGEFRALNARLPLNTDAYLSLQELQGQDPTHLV
Sequence of IL-15Rβ/γ chain (IL-2Rβ and common gamma chain) on human CD8+ T cells and NK cells (human) (P31785 23-369, chain 2 of 2, further chain): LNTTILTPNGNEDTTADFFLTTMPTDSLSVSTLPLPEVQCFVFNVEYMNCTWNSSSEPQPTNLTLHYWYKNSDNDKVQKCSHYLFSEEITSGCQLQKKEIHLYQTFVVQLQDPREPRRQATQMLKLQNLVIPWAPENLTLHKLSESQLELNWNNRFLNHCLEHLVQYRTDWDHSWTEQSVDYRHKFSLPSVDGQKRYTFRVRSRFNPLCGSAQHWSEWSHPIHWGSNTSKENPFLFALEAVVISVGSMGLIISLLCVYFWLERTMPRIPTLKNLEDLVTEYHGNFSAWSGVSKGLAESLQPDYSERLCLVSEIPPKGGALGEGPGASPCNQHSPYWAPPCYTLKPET

- EC50, % Ki67 expression, human CD8+ T cells [1]: 28.5 nM
- EC50, % Ki67 expression, human NK cells [1]: 5.12 nM
- Fold reduced (EC50, % Ki67), human CD8+ T cells [1]: 155 fold
- Fold reduced (EC50, % Ki67), human NK cells [1]: 244 fold
- EC50, % Ki67 expression, human CD8+ T cells [2]: 203 nM
- EC50, % Ki67 expression, human NK cells [2]: 35.5 nM
- Fold reduced (EC50, % Ki67), human CD8+ T cells [2]: 441 fold
- Fold reduced (EC50, % Ki67), human NK cells [2]: 355 fold
- EC50, % Ki67 expression, human CD8+ T cells [3]: 651 nM
- EC50, % Ki67 expression, human NK cells [3]: 74.3 nM
- Fold reduced (EC50, % Ki67), human CD8+ T cells [3]: 2170 fold
- Fold reduced (EC50, % Ki67), human NK cells [3]: 2480 fold
- EC50, % Ki67 expression, human CD8+ T cells [4]: 145 nM
- EC50, % Ki67 expression, human NK cells [4]: 39 nM
- Fold reduced (EC50, % Ki67), human CD8+ T cells [4]: 176 fold
- Fold reduced (EC50, % Ki67), human NK cells [4]: 231 fold
B1: W369-BMK1 (XENP24306) (Fc fusion, not shown: a dimerising Fc or GST)
chain: NWVNVISDLKKIEDLIQSMHIDATLYTESNVHPSCKVTAMKCFLLELQVISLESGDASIHDTVQDLIILANNSLSSNGNVTESGCKECEELEEKNIKEFLQSFVHIVQMFINTS
modifications: IL-15Rα-Fc chain, linker, Fc lack entries
